B1: RNase E (1–510) D303R, D346R (domain or fragment)
chain: not shown
notes: Crystallised with full-length sRNA RprA; also called RNase E (1–511); source: E. coli BL21(DE3), purified (nickel HiTrap Chelating, optional heparin or butyl Sepharose, gel filtration)
B2: RNase E (1–529) D303R, D346R (domain or fragment)
chain: not shown
notes: Crystallised with a 5' monophosphorylated MicC-ompD fusion RNA; Prepared as in Callaghan et al., 2005; cloned in pET16; source: E. coli BL21(DE3), purified (nickel HiTrap Chelating, optional heparin or butyl Sepharose, gel filtration)

Tests used:
[1] = target: the molecule itself; assay: crystal structure; RNase E (1-510) D303R, D346R co-crystallised with full-length sRNA RprA; 3.95 Å, space group P6(1); 0.1 M KCl, 0.01 M MgCl2, 0.05 M Tris-HCl pH 8.5, 30% PEG 400, 20°C; tetramer as a dimer of dimers
[2] = target: the molecule itself; assay: crystal structure; RNase E (1-529) D303R, D346R co-crystallised with 5' monophosphorylated MicC-ompD fusion RNA (1:1 molar ratio); 3.0 Å, space group C2; open-state quaternary structure

Protein | stoichiometry N [1] | binding result [2]
B1 | 4 | –
B2 | – | binds

From paper PMC6202311, “Substrate Recognition and Autoinhibition in the Central Ribonuclease RNase E” (Molecular Cell, 2018)
